# Key:
# [1] = format: in vivo; details: for increase in Vd when co-infused with heparin: 5 μg protein in 5 μl, 0.2 μl/min, with heparin (18 μg) vs infused alone; for Vd/Vi ratio: low volume (5 μl) infusion, apparently with heparin co-infusion (FIG. 2b)
# Description: (§1) The animals were anesthetized with ketamine (10 mg/kg) and xylazine (3 mg/Kg) via intraperitoneal injection and placed in a Kopf small animal stereotactic frame. A sagittal incision was made through the skin and a burr hole was placed into the skull with a twist drill. The cannula coordinates were: 0.5 mm anterior to bregma, 2.8 mm to the right of bregma, and 5 mm below the dura.
# (§2) The infusion apparatus consisted of a hydraulic drive serially connected to a syringe pump. This depressed the plunger of one of two 250 μl Hamilton syringes connected by cannulas made from polyetheretherketone (PEEK) tubing (inner diameter 250 μm) and filled with distilled water. One of the 250 μl Hamilton syringes was secured to the stereotactic frame and was contiguous with an infusate-filled 10 or 50 μl Hamilton syringe. Since the system was non-compliant (zero dead space), the compression of the syringe pump of the infusion apparatus led to the measured release of infusate from the 10 or 50 μl Hamilton syringe in a uniform fashion. All infusions were performed with a 32 g cannula at 0.2 μl/min (6).
# The vehicle was 4% mannitol in 10 mM HEPES. […]
# (§3) The brains were cut into 40 μm serial coronal sections on a cryostat. Frozen sections were collected in a series in antifreeze solutions and stored at −70° C. Every 12th section was stained for immunohistochemistry.
# Sections were washed in phosphate buffered saline (PBS) and incubated in 3% H2O2 for 20 minutes to block endogenous peroxidase activity. […] The sections were then incubated for 1 hour in biotinylated anti-mouse IgG secondary antibody (Vector Labs, 1:300). Antibody binding was visualized with streptavidin horseradish peroxidase (Vector Labs, 1:300) and VIP chromogen (Vector Labs). Sections were then coverslipped and examined under light microscopy. Vd was measured using NIH image analysis software.
# The volume of distribution of BSA and the GDNF family of trophic factors was analyzed using a Macintosh-based image analysis system. Images of stained tissue slices were captured by a CCD camera using Adobe Photoshop software. Using NIH Image Analysis software, the area of distribution of infused protein in each tissue section was automatically determined using a threshold of 50% of the maximal stained optical density. The sum of the areas of infusion was used to determine the Vd in each striatum.
# dopamine utilization = assay: Dopamine utilization: striatal DOPAC/DA ratio by HPLC 4 days after intrastriatal infusion; format: in vivo, rat
# Description: In the study analyzing dopamine metabolism following trophic factor administration, the animals were infused with 5 μg of NTN in 5 μl of vehicle with and without heparin (2.5 units) and sacrificed after 4 days. The vehicle was 4% mannitol in 10 mM HEPES. After completing infusion, the cannula was withdrawn at 1 mm/minute. Following the procedure, the animals used for immunohistochemical analysis were intracardially perfused with 4% paraformaldehyde. Brains were harvested and immersed overnight in 4% paraformaldehyde. The brains were cryoprotected through immersion in graded sucrose solution (20-30%) and frozen at […]. Animals to be used in HPLC studies were euthenized and the brains were harvested and fresh frozen at −70°.
# Animals were sacrificed 4 days after intrastriatal infusion of 5 μl vehicle with 18 μg of heparin, 5 μg of NTN in 5 μl of vehicle or 5 μg of NTN in 5 μl of vehicle with 18 μg of heparin. After decapitation, the brains were rapidly removed and chilled in ice for 4 minutes. They were sliced 1 mm anterior and 2 mm posterior to the injection site using a chilled plastic brain mold. For biochemical studies, frozen punches from the striatum were taken from the injected and uninjected sides for comparison. […] Dopamine (DA), serotonin (5-HT) and their metabolites were measured by HPLC using Ultrasphere C-18 ion pair column, 5μ, 4.6 mm×25 cm (Beckman 235329): a Waters 717 plus autosampler, Waters 510 pump at 0.8 ml/min, and an amperometric electrochemical detector (EiCom CB-100) set at 0.78 V. The mobile phase contained 2-1 deionized water, 2.8 g L-heptanesulfonic acid sodium salt, 0.17 g EDTA, 20 ml triethylamine and 50 ml acetonitrile, pH was adjusted to 2.6 with 13 ml of 85% phosphoric acid. The results were recorded and analyzed with Waters Millenium 2010 Chromatography Manager software. Protein concentration in the tissue pellet was determined using the BCA Protein Assay Kit (Pierce #23225). The results are expressed as nM/hr/mg of protein.
# [2] = Histological examination of infused brains for hemorrhage and tissue damage; format: in vivo, rat; details: heparin 0.5 units/μl, low volume studies
# Description: Studies were conducted to establish whether CED could be used to distribute trophic factors within the GDNF family over volumes that might be relevant to larger primate brains. High volume infusions (20 μl) of NTN with heparin were able to cover significant volumes of the rat brain (FIG. 3). […] Maximum Vd attained following co-infusion with heparin was 37.3 mm^3, compared to a maximum Vd of 11.0 mm^3 in control animals (FIG. 3). At this infusion volume, in 4 out of 6 animals in which NTN was co-infused with heparin, the striatum was completely stained, as opposed to none of the subjects infused with NTN alone. There was no evidence of hemorrhage (H&E stain) in any of the specimens following the high volume infusions.
# All brains had well demarcated areas of antibody staining following immunohistochemistry. In all brains, there was no evidence of tissue damage, with the exception of the needle track and some non-specific drill-induced cortical lesions. There was no evidence of hemorrhage in any animal at 0 or 4 days after infusion.
# This emphasizes the importance of receptor binding in drug distribution as well.
# [3] = CED high volume (20 μl) NTN intrastriatal infusion, volume of distribution by immunohistochemistry; format: in vivo, rat
# Description: as §1, §2
# The vehicle was 4% mannitol in 10 mM HEPES. In the high volume experiment, 50 μg of NTN in 20 μl of vehicle with (n=6) and without (n=6) heparin (71 μg) was delivered into the striatum.
# as §3
# Sections were washed in phosphate buffered saline (PBS) and incubated in 3% H2O2 for 20 minutes to block endogenous peroxidase activity. […] Vd was measured using NIH image analysis software.
# The volume of distribution of BSA and the GDNF family of trophic factors was analyzed using a Macintosh-based image analysis system. […] Using NIH Image Analysis software, the area of distribution of infused protein in each tissue section was automatically determined using a threshold of 50% of the maximal stained optical density. […]
molecule,measurement,setting,value
Artemin,increase in Vd when co-infused with heparin,[1],greater than 10 fold
heparin [reference compound],DOPAC/DA levels compared to the uninjected (left) striatum,"dopamine utilization; 5 μl vehicle with 18 μg heparin, 4 days",no change
same,gross or microscopic hemorrhage,[2],no evidence of gross or microscopic hemorrhage
"Neurturin (protein, UniProt Q99748 96-197, looked up, trophic factor of the GDNF ligand family) Neurturin: ARLGARPCGLRELEVRVSELGLGYASDETVLFRYCAGACEAAARVYDLGLRRLRQRRRLRRERVRAQPCCRPTAYEDEVSFLDAHSRYHTVHELSARECACV",DOPAC/DA ratio,"dopamine utilization; 5 μg NTN in 5 μl, with or without heparin 18 μg, 4 days after infusion, mean +/- S.E.",146+/−14.2 percentage of the uninjected h
same,DOPAC/DA ratio compared to the vehicle+heparin group,"dopamine utilization; 4 days after right striatal infusion, Fisher test",significantly increased
same,animals in which the striatum was completely stained,"[3]; 20 μl infusion, n=6 per group",none
same,Maximum Vd,"[3]; rat, in vivo",11.0 mm^3
same,Vd,"[3]; rat, in vivo",7.7+/−1.1 mm^3
same,increase in Vd when co-infused with heparin,[1],7 fold
same,Vd/Vi ratio,[1],4.6
"GDNF (protein, UniProt P39905 78-211, looked up, glial cell line-derived neurotrophic factor, trophic factor provided by Genentech) Glial cell line-derived …: SPDKQMAVLPRRERNRQAAAANPENSRGKGRRGQRGKNRGCVLTAIHLNVTDLGLGYETKEELIFRYCSGSCDAAETTYDKILKNLSRNRRLVSDKVGQACCRPIAFDDDLSFLDDNLVYHILRKHSAKRCGCI",increase in Vd when co-infused with heparin,[1],5 fold
same,Vd/Vi ratio,[1],5.0
same,effect of heparin co-infusion on Vd,"[1]; rat, in vivo",significantly increased

# — patent US20020114780A1, “Methods of increasing distribution of therapeutic agents” (priority 2000, published 2002)
